Source: patent publication US20150148403A1 (ACADEMIA SINICA, published 2015)

T1: Flag-tagged USP37 (human, UniProt Q86T82 1-979)
T1 construct: Expressed in transfected HEK-293T cells and tested in lysate by co-immunoprecipitation; also called Flag-USP37; USP37 WT; not shown: 3xFLAG tag from the pCMV-3xFLAG vector
T1 sequence: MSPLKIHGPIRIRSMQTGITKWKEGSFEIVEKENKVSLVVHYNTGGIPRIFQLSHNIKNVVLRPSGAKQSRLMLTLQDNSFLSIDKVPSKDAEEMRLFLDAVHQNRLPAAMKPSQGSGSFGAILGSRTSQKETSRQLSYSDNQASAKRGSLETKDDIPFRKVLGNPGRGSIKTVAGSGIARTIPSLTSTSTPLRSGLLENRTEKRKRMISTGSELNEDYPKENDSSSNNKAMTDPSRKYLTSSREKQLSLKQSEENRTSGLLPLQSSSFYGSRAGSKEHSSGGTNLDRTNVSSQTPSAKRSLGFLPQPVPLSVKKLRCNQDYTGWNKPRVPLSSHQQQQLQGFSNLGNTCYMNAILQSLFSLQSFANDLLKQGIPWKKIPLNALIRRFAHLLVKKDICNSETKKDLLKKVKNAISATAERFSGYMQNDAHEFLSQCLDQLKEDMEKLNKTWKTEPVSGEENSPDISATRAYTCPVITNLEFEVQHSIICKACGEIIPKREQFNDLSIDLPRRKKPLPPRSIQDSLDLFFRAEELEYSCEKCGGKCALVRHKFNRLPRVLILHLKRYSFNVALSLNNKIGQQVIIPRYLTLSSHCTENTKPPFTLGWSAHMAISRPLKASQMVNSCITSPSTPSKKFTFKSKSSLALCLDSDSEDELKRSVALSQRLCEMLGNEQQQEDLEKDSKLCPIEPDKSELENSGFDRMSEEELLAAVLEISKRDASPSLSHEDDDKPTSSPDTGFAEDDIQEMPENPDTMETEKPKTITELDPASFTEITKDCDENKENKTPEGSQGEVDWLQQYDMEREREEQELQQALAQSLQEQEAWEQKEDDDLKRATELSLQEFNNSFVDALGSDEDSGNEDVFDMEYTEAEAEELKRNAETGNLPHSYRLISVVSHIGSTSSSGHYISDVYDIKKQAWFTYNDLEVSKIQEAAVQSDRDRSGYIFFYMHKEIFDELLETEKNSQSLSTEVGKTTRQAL


Key:
[1] = biological target: poly-ubiquitinated PLZF/RARA immunoprecipitated from HEK-293T cells expressing Flag-tagged PLZF/RARA and Myc-tagged Ub
Flag-tagged USP37 = biological target: T1, Flag-tagged USP37; experiment: co-immunoprecipitation from transfected HEK-293T cells

Row | Binder | in vitro deubiquitination of poly-ubiquitinated PLZF/RARA (immunoblot) [1] | binding result (Flag-tagged USP37)
1 | MBP-fused USP37 recombinant protein (protein) MSPLKIHGPIRIRSMQTGITKWKEGSFEIVEKENKVSLVVHYNTGGIPRIFQLSHNIKNVVLRPSGAKQSRLMLTLQDNSFLSIDKVPSKDAEEMRLFLDAVHQNRLPAAMKPSQGSGSFGAILGSRTSQKETSRQLSYSDNQASAKRGSLETKDDIPFRKVLGNPGRGSIKTVAGSGIARTIPSLTSTSTPLRSGLLENRTEKRKRMISTGSELNEDYPKENDSSSNNKAMTDPSRKYLTSSREKQLSLKQSEENRTSGLLPLQSSSFYGSRAGSKEHSSGGTNLDRTNVSSQTPSAKRSLGFLPQPVPLSVKKLRCNQDYTGWNKPRVPLSSHQQQQLQGFSNLGNTCYMNAILQSLFSLQSFANDLLKQGIPWKKIPLNALIRRFAHLLVKKDICNSETKKDLLKKVKNAISATAERFSGYMQNDAHEFLSQCLDQLKEDMEKLNKTWKTEPVSGEENSPDISATRAYTCPVITNLEFEVQHSIICKACGEIIPKREQFNDLSIDLPRRKKPLPPRSIQDSLDLFFRAEELEYSCEKCGGKCALVRHKFNRLPRVLILHLKRYSFNVALSLNNKIGQQVIIPRYLTLSSHCTENTKPPFTLGWSAHMAISRPLKASQMVNSCITSPSTPSKKFTFKSKSSLALCLDSDSEDELKRSVALSQRLCEMLGNEQQQEDLEKDSKLCPIEPDKSELENSGFDRMSEEELLAAVLEISKRDASPSLSHEDDDKPTSSPDTGFAEDDIQEMPENPDTMETEKPKTITELDPASFTEITKDCDENKENKTPEGSQGEVDWLQQYDMEREREEQELQQALAQSLQEQEAWEQKEDDDLKRATELSLQEFNNSFVDALGSDEDSGNEDVFDMEYTEAEAEELKRNAETGNLPHSYRLISVVSHIGSTSSSGHYISDVYDIKKQAWFTYNDLEVSKIQEAAVQSDRDRSGYIFFYMHKEIFDELLETEKNSQSLSTEVGKTTRQAL | the recombinant USP37 WT but not CA mutant could deubiquitinate PLZF/RARA in vitro | 
2 | recombinant USP37 CA mutant (USP37 C350A) (protein) MSPLKIHGPIRIRSMQTGITKWKEGSFEIVEKENKVSLVVHYNTGGIPRIFQLSHNIKNVVLRPSGAKQSRLMLTLQDNSFLSIDKVPSKDAEEMRLFLDAVHQNRLPAAMKPSQGSGSFGAILGSRTSQKETSRQLSYSDNQASAKRGSLETKDDIPFRKVLGNPGRGSIKTVAGSGIARTIPSLTSTSTPLRSGLLENRTEKRKRMISTGSELNEDYPKENDSSSNNKAMTDPSRKYLTSSREKQLSLKQSEENRTSGLLPLQSSSFYGSRAGSKEHSSGGTNLDRTNVSSQTPSAKRSLGFLPQPVPLSVKKLRCNQDYTGWNKPRVPLSSHQQQQLQGFSNLGNTAYMNAILQSLFSLQSFANDLLKQGIPWKKIPLNALIRRFAHLLVKKDICNSETKKDLLKKVKNAISATAERFSGYMQNDAHEFLSQCLDQLKEDMEKLNKTWKTEPVSGEENSPDISATRAYTCPVITNLEFEVQHSIICKACGEIIPKREQFNDLSIDLPRRKKPLPPRSIQDSLDLFFRAEELEYSCEKCGGKCALVRHKFNRLPRVLILHLKRYSFNVALSLNNKIGQQVIIPRYLTLSSHCTENTKPPFTLGWSAHMAISRPLKASQMVNSCITSPSTPSKKFTFKSKSSLALCLDSDSEDELKRSVALSQRLCEMLGNEQQQEDLEKDSKLCPIEPDKSELENSGFDRMSEEELLAAVLEISKRDASPSLSHEDDDKPTSSPDTGFAEDDIQEMPENPDTMETEKPKTITELDPASFTEITKDCDENKENKTPEGSQGEVDWLQQYDMEREREEQELQQALAQSLQEQEAWEQKEDDDLKRATELSLQEFNNSFVDALGSDEDSGNEDVFDMEYTEAEAEELKRNAETGNLPHSYRLISVVSHIGSTSSSGHYISDVYDIKKQAWFTYNDLEVSKIQEAAVQSDRDRSGYIFFYMHKEIFDELLETEKNSQSLSTEVGKTTRQAL | the recombinant USP37 WT but not CA mutant could deubiquitinate PLZF/RARA in vitro | 
3 | HA-tagged RARA (receptor, UniProt P10276 1-462, looked up, Expressed in transfected HEK-293T cells; not shown: HA tag) MASNSSSCPTPGGGHLNGYPVPPYAFFFPPMLGGLSPPGALTTLQHQLPVSGYSTPSPATIETQSSSSEEIVPSPPSPPPLPRIYKPCFVCQDKSSGYHYGVSACEGCKGFFRRSIQKNMVYTCHRDKNCIINKVTRNRCQYCRLQKCFEVGMSKESVRNDRNKKKKEVPKPECSESYTLTPEVGELIEKVRKAHQETFPALCQLGKYTTNNSSEQRVSLDIDLWDKFSELSTKCIIKTVEFAKQLPGFTTLTIADQITLLKAACLDILILRICTRYTPEQDTMTFSDGLTLNRTQMHNAGFGPLTDLVFAFANQLLPLEMDDAETGLLSAICLICGDRQDLEQPDRVDMLQEPLLEALKVYVRKRRPSRPHMFPKMLMKITDLRSISAKGAERVITLKMEIPGSMPPLIQEMLENSEGLDTLSGQPGGGGRDGGGLAPPPGSCSPSLSPSSNRSSPATHSP |  | no binding
